PMC10903085 (Neurotherapeutics, 2023)

Target: His-Tau-Strep (human 4R2N Tau) (human, UniProt P10636-8 1-441)
Experiment: AlphaScreen or HTRF

binding result: binds
B1: GST-Fyn-SH3-Strep (human Fyn-SH3 domain) (domain or fragment)
chain: not shown
